One assay has as its target FGFR1. Put plainly: Flow cytometry surface staining of HAP1 WT cells with the isotype control, SSC against FITC.
The target of another assay is c-MET (Homo sapiens) (UniProt P08581). Put plainly: Flow cytometry surface staining of HAP1 WT cells with the isotype control, SSC against PE.
The target in assay [1] is T1, AAV2 particles (adeno-associated virus serotype 2 capsid) (adeno-associated virus serotype 2, UniProt P03135 1-735). In words: cell-based or functional assay.
T1 sequence (P03135 whole entry): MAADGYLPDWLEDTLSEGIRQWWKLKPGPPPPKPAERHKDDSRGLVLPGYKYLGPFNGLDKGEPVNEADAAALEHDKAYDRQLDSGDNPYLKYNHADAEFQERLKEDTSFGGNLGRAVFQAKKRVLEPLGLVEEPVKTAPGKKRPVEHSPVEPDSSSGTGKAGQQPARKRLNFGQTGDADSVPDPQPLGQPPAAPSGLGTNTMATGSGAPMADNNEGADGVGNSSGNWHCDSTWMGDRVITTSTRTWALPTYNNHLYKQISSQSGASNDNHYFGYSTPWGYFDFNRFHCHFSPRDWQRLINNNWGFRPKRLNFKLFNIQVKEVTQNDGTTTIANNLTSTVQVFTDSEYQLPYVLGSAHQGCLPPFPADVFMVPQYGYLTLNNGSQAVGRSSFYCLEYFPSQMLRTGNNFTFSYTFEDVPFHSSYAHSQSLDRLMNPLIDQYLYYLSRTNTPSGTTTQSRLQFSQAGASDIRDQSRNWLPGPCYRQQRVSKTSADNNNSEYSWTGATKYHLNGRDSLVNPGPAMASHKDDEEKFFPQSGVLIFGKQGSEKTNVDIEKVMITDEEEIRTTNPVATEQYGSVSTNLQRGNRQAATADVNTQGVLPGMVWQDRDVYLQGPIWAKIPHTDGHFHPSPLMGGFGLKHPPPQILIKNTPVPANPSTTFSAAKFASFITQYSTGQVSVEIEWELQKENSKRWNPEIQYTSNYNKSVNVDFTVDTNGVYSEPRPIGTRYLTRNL
For assay [2], the target named is T1, AAV2 particles (adeno-associated virus …). In words: ELISA: plates coated with AAV2 virus-like particles, soluble AAVR (MBP-PKD1-5) detected with anti-MBP-HRP, A450.
Assay [3] shares this target. Put plainly: SPR (BIAcore X), His-tagged soluble AAVR immobilised on CM5 chip, AAV-2 particles as analyte, Langmuir 1:1 fit.
For assay [4] the target is unchanged. In words: SPR (BIAcore X): His-tagged soluble AAVR immobilised at 2 nM ligand concentration, AAV-2 particles as analyte, Langmuir 1:1 fit.
Assay [5] has the same target. In words: SPR (BIAcore X): His-tagged soluble AAVR immobilised at 4 nM ligand concentration, AAV-2 particles as analyte, Langmuir 1:1 fit.

Turning to isotype (FITC row) (antibody), in the assay with FGFR1, the % of cells in the positive gate turned out to be 0.28%.
Turning to isotype (PE row) (antibody), in the assay with c-MET (Homo sapiens), the % of cells in the positive gate amounted to 0.68%.

B1: soluble AAVR (E. coli-expressed recombinant fusion between maltose-binding protein and AAVR PKD domains 1-5) (receptor)
chain: VSAGESVQITLPKNEVQLNAYVLQEPPKGETYTYDWQLITHPRDYSGEMEGKHSQILKLSKLTPGLYEFKVIVEGQNAHGEGYVNVTVKPEPRKNRPPIAIVSPQFQEISLPTTSTVIDGSQSTDDDKIVQYHWEELKGPLREEKISEDTAILKLSKLVPGNYTFSLTVVDSDGATNSTTANLTVNKAVDYPPVANAGPNQVITLPQNSITLFGNQSTDDHGITSYEWSLSPSSKGKVVEMQGVRTPTLQLSAMQEGDYTYQLTVTDTIGQQATAQVTVIVQPENNKPPQADAGPDKELTLPVDSTTLDGSKSSDDQKIISYLWEKTQGPDGVQLENANSSVATVTGLQVGTYVFTLTVKDERNLQSQSSVNVIVKEEINKPPIAKITGNVVITLPTSTAELDGSKSSDDKGIVSYLWTRDEGSPAAGEVLNHSDHHPILFLSNLVEGTYTFHLKVTDAKGESDTDRTTVEVKPDPR
notes: Used in the ELISA on AAV2 VLPs and in the neutralization assay; also called rAAVR1-5; MBP-AAVR PKD 1-5
Take B1: the “IC50 (read off the curve)” value in assay [1] is around 20 nM. Also, the “EC50 (read off the curve)” value in assay [2] was around 100 nM.

B2: His-tagged soluble AAVR (His-tagged MBP fusion with AAVR PKD domains 1-5) (receptor)
chain: VSAGESVQITLPKNEVQLNAYVLQEPPKGETYTYDWQLITHPRDYSGEMEGKHSQILKLSKLTPGLYEFKVIVEGQNAHGEGYVNVTVKPEPRKNRPPIAIVSPQFQEISLPTTSTVIDGSQSTDDDKIVQYHWEELKGPLREEKISEDTAILKLSKLVPGNYTFSLTVVDSDGATNSTTANLTVNKAVDYPPVANAGPNQVITLPQNSITLFGNQSTDDHGITSYEWSLSPSSKGKVVEMQGVRTPTLQLSAMQEGDYTYQLTVTDTIGQQATAQVTVIVQPENNKPPQADAGPDKELTLPVDSTTLDGSKSSDDQKIISYLWEKTQGPDGVQLENANSSVATVTGLQVGTYVFTLTVKDERNLQSQSSVNVIVKEEINKPPIAKITGNVVITLPTSTAELDGSKSSDDKGIVSYLWTRDEGSPAAGEVLNHSDHHPILFLSNLVEGTYTFHLKVTDAKGESDTDRTTVEVKPDPR
notes: Construct immobilised on the CM5 chip for SPR; also called AAVR (SPR ligand); not shown: His tag
For B2, the Kd in assay [3] is around 150 nM; in assay [4], 140 nM; in assay [5], 150 nM. The koff in assay [4] amounted to 0.0023 s⁻¹; in assay [5], 0.0029 s⁻¹. The on-rate (kon) is 20000 M⁻¹ s⁻¹ in assay [4] and 18000 M⁻¹ s⁻¹ in assay [5].
